Results as given in PMC3995750, “Improved production of recombinant human Fas ligand extracellular domain in Pichia pastoris: yield enhancement using disposable culture-bag and its application to site-specific chemical modifications” (BMC Biotechnology, 2014).

B1: NFG1CG4-tagged human Fas ligand extracellular domain (139-281, N184Q, N250Q), not conjugated (domain or fragment, UniProt P48023 139-281, looked up)
chain: EKKELRKVAHLTGKSNSRSMPLEWEDTYGIVLLSGVKYKKGGLVIQETGLYFVYSKVYFRGQSCNNLPLSHKVYMRNSKYPQDLVMMEGKMMSYCTTGQMWARSSYLGAVFQLTSADHLYVNVSELSLVNFEESQTFFGLYKL
modifications: cysteine in the N-terminal tag, partly in a possible inter-subunit disulfide bond
notes: human Fas ligand (281 aa), residues 139-281 with N184Q and N250Q; Made from the NFG5-hFasLECD gene by an insertion mutation that adds a cysteine in the (Gly)5 region of the tag; also called NFG1CG4-hFasLECD; source: Pichia pastoris GS115 (Mut+), secreted; 40-fold concentrated culture supernatant; partially purified by cation-exchange chromatography; not shown: FLAG-GlyCys(Gly)4, N-terminal, kept
B2: tag-free human Fas ligand extracellular domain (139-281, N184Q, N250Q), N-glycan untrimmed (domain or fragment, UniProt P48023 139-281, looked up)
chain: B1 chain
modifications: remaining N-glycans, untrimmed
notes: human Fas ligand (281 aa), extracellular domain with residues 103-138 deleted, i.e. residues 139-281, with N184Q and N250Q; Secreted with the S. cerevisiae alpha-factor prepro signal; also called tag-free hFasLECD; N-glycan untrimmed tag-free hFasLECD; source: Pichia pastoris GS115 (Mut+), secreted, purified (two rounds of cation-exchange chromatography)
B3: N-glycan trimmed tag-free human Fas ligand extracellular domain (139-281, N184Q, N250Q) (domain or fragment, UniProt P48023 139-281, looked up)
chain: B1 chain
modifications: N-glycans trimmed with Endo Hf
notes: human Fas ligand (281 aa), residues 139-281 with N184Q and N250Q; Same chain as m1 after Endo Hf digestion; also called N-glycan trimmed tag-free hFasLECD; source: Pichia pastoris GS115 (Mut+), secreted, purified; digested with Endo Hf, Con A-agarose flow-through, Mono S cation-exchange
B4: NFG1CG4-hFasLECD cross-linked with SUNBRIGHT DE-100MA, peak III of the size-exclusion chromatography (domain or fragment, human, UniProt P48023 139-281, looked up)
chain: B1 chain
modifications: cysteine in the N-terminal tag conjugated with SUNBRIGHT DE-100MA (linear polyethylene glycol of about 10 kDa with a maleimide group at either end): two subunits cross-linked by one molecule, or one subunit conjugated with one molecule; unreacted cysteines capped with N-Ethylmaleimide
notes: human Fas ligand (281 aa), residues 139-281 with N184Q and N250Q; not shown: FLAG-GlyCys(Gly)4, N-terminal, kept
B5: NFG1CG4-hFasLECD cross-linked with SUNBRIGHT DE-100MA, peak II of the size-exclusion chromatography (domain or fragment, human, UniProt P48023 139-281, looked up)
chain: B1 chain
modifications: cysteine in the N-terminal tag conjugated with SUNBRIGHT DE-100MA (linear polyethylene glycol of about 10 kDa with a maleimide group at either end): two subunits cross-linked by one molecule, or one subunit conjugated with one molecule; unreacted cysteines capped with N-Ethylmaleimide
notes: as for B4
B6: N-Ethylmaleimide conjugated NFG1CG4-hFasLECD (domain or fragment, human, UniProt P48023 139-281, looked up)
chain: B1 chain
modifications: cysteine in the N-terminal tag conjugated with N-Ethylmaleimide
notes: human Fas ligand (281 aa), residues 139-281 with N184Q and N250Q; also called N-Ethylmaleimide adduct of NFG1CG4-hFasLECD; not shown: FLAG-GlyCys(Gly)4, N-terminal, kept
B7: SUNBRIGHT ME-050MA conjugated NFG1CG4-hFasLECD (domain or fragment, human, UniProt P48023 139-281, looked up)
chain: B1 chain
modifications: cysteine in the N-terminal tag conjugated with SUNBRIGHT ME-050MA (linear methoxy polyethylene glycol of about 5 kDa with one maleimide group); a small fraction of subunits not conjugated
notes: human Fas ligand (281 aa), residues 139-281 with N184Q and N250Q; also called SUNBRIGHT ME-050MA adduct of NFG1CG4-hFasLECD; not shown: FLAG-GlyCys(Gly)4, N-terminal, kept
B8: N-terminal FLAG-(Gly)5 tagged human Fas ligand extracellular domain (aa 139-281, N184Q, N250Q) (domain or fragment, UniProt P48023 139-281, looked up)
chain: B1 chain
notes: human Fas ligand (281 aa), residues 139-281 with N184Q and N250Q; Positive control of the co-immunoprecipitation; also called NFG5-hFasLECD; not shown: FLAG-(Gly)5, N-terminal, kept

Biological target: the molecule itself
Test: SDS-PAGE with and without 2-mercaptoethanol; partially purified NFG1CG4-hFasLECD (main peak of the 1st cation-exchange chromatography, concentrated) in sample buffer with or without 2-mercaptoethanol; inter-subunit disulfide bond
Details: not given

Binding result, binds:
B1

Each binder was assayed against T1, wild-type human Fas receptor extracellular domain fused to human IgG1-Fc domain with a thrombin cleavage site … (human, UniProt P25445 26-173) (assay: co-IP; receptor-mediated ligand immunoprecipitation: purified hFasLECD sample with hFasRECD-T-Fc protein and Protein A-agarose beads (immunoprecipitation kit, Roche); precipitate analysed by SDS-PAGE). Details: both partners purified.
T1 construct: human Fas receptor, extracellular domain; A thrombin cleavage site lies between the receptor part and the Fc; also called wild-type hFasRECD-T-Fc; hFasRECD-T-Fc
T1 sequence (looked up): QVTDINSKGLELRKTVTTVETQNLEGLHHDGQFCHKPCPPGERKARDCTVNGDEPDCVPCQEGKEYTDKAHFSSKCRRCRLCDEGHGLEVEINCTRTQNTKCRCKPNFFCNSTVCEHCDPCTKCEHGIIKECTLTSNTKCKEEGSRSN

Binding result, binds:
B2
B3
B4
B5
B6
B7
B8
